Source: patent US20070077617
Positions count from the first letter of the chain named. Numbers in names are those of the source.

B1: OmpT protease variant OmpT D97A (protein)
chain: STETLSFTPDNINADISLGTLSGKTKERVYLAEEGGRKVSQLDWKFNNAAIIKGAINWDLMPQISIGAAGWTTLGSRGGNMVDQDWMDSSNPGTWTAESRHPDTQLNYANEFDLNIKGWLLNEPNYRLGLMAGYQESRYSFTARGGSYIYSSEEGFRDDIGSFPNGERAIGYKQRFKMPYIGLTGSYRYEDFELGGTFKYSGWVESSDNDEHYDPGKRITYRSKVKDQNYYSVAVNAGYYVTPNAKVYVEGAWNRVTNKKGNTSLYDHNNNTSDYSKNGAGIENYNFITTAGLKYTF
B2: OmpT protease variant OmpT D97I (protein)
chain: B1 chain with A97I
B3: OmpT protease variant OmpT D97V (protein)
chain: B1 chain with A97V

Chain of fusion protein PRA (chain, as listed by the source): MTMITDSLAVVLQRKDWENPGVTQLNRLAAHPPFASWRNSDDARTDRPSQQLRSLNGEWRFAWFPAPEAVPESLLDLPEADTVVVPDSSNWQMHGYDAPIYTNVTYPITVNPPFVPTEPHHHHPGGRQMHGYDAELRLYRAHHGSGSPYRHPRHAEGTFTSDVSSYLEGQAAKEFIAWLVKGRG
Chain of fusion protein PRG (chain, as listed by the source): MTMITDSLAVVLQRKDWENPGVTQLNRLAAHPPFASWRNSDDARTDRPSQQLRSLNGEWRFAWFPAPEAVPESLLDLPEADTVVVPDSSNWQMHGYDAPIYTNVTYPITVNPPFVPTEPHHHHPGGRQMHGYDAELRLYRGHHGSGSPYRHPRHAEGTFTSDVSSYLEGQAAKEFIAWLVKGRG
Chain of fusion protein PRC (chain, as listed by the source): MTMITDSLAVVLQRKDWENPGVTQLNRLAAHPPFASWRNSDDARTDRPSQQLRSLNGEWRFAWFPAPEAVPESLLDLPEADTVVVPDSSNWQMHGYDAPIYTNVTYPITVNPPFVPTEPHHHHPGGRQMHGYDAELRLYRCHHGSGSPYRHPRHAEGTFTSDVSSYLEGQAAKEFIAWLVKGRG
Chain of fusion protein PRQ (chain, as listed by the source): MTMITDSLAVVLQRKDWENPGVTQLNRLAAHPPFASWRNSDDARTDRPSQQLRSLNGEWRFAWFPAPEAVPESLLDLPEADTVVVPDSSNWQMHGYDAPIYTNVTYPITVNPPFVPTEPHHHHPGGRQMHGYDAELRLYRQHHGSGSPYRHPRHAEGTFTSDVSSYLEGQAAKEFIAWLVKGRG
Chain of fusion protein PRS (chain, as listed by the source): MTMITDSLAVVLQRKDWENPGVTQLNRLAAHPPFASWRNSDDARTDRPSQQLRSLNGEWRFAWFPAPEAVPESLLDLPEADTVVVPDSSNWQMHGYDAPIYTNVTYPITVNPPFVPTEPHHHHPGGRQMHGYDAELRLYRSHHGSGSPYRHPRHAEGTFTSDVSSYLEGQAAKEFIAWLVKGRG
Chain of fusion protein PRL (chain, as listed by the source): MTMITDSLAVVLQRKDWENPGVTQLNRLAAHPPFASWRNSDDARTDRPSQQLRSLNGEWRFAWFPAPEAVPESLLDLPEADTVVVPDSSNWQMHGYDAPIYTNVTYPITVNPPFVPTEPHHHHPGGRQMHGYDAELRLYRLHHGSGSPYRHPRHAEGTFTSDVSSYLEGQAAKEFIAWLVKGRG
Chain of fusion protein PRM (chain, as listed by the source): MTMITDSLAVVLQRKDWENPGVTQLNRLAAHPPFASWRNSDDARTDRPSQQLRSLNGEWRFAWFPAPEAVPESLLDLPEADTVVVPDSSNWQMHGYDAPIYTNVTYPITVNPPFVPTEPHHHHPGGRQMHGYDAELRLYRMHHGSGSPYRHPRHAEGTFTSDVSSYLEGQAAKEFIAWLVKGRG
Chain of fusion protein PRN (chain, as listed by the source): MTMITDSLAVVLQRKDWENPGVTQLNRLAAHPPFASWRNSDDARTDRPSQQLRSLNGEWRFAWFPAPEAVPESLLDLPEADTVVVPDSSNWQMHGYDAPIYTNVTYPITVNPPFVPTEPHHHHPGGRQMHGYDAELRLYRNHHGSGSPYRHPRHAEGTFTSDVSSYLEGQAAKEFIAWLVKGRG
Chain of fusion protein PRF (chain, as listed by the source): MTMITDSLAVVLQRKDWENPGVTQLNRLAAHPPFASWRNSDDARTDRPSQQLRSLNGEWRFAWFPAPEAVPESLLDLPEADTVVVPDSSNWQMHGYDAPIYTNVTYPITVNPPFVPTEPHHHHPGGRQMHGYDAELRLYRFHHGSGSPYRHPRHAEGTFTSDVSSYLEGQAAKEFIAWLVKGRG
Chain of fusion protein PRI (chain, as listed by the source): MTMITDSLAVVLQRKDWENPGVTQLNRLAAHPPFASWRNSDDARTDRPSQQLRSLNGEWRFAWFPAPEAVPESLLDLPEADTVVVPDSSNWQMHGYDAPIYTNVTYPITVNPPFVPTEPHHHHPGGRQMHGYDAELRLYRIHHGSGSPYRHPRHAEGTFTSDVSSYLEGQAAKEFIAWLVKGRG
Chain of fusion protein PRH (chain, as listed by the source): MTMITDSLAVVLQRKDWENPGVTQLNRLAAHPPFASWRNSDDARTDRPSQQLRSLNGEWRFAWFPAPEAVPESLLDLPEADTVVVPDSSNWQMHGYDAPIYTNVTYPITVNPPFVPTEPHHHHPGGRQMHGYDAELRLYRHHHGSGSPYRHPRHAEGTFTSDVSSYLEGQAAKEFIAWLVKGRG
Chain of fusion protein PRK (chain, as listed by the source): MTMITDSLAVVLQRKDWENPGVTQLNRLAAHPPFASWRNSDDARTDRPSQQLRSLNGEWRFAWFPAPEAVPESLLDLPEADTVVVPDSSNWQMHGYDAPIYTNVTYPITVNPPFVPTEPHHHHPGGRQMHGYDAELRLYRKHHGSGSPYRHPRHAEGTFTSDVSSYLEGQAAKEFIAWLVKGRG
Chain of fusion protein PRY (chain, as listed by the source): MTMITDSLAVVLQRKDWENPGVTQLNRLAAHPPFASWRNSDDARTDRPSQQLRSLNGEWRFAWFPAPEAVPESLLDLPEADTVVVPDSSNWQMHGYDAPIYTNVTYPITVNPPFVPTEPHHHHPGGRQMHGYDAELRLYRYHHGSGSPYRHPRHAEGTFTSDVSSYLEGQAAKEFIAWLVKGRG
Chain of fusion protein PRT (chain, as listed by the source): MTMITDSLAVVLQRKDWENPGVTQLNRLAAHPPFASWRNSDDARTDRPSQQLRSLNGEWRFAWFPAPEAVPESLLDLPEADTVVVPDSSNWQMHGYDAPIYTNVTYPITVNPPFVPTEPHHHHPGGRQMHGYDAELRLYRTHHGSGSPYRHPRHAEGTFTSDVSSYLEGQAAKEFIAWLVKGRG
Chain of fusion protein PRE (chain, as listed by the source): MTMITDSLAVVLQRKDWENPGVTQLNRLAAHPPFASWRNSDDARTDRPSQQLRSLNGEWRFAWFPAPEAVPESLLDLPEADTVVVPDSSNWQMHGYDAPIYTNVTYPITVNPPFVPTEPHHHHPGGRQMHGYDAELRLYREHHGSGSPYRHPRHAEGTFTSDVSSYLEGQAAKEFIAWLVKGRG
Chain of fusion protein PRD (chain, as listed by the source): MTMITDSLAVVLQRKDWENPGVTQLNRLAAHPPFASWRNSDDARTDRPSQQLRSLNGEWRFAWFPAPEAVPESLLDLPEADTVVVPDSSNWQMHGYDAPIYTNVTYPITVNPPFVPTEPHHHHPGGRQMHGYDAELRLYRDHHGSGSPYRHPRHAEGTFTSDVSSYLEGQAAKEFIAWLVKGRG
Chain of fusion protein PRW (chain, as listed by the source): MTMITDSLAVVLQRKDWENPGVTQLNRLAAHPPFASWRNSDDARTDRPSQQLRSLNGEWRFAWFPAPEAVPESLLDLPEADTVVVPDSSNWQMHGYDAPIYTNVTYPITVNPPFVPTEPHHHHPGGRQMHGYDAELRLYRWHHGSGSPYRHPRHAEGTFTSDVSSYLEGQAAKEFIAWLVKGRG
Chain of fusion protein PRR (chain, as listed by the source): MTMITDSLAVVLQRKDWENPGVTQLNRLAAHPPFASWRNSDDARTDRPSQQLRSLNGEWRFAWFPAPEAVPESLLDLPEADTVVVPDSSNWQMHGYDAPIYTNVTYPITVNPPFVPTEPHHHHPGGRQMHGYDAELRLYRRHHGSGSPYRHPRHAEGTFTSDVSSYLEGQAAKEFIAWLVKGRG

| Protein | relative cleavage efficiency (fusion protein PRW) | relative cleavage efficiency (fusion protein PRG) | relative cleavage efficiency (fusion protein PRP) | relative cleavage efficiency (fusion protein PRY) | relative cleavage efficiency (fusion protein PRT) | relative cleavage efficiency (fusion protein PRM) | relative cleavage efficiency (fusion protein PRR) | relative cleavage efficiency (fusion protein PRL) | relative cleavage efficiency (fusion protein PRF) | relative cleavage efficiency (fusion protein PRE) | relative cleavage efficiency (fusion protein PRS) | relative cleavage efficiency (fusion protein PRC) | relative cleavage efficiency (fusion protein PRH) | relative cleavage efficiency (fusion protein PRI) | relative cleavage efficiency (fusion protein PRA) | relative cleavage efficiency (fusion protein PRD) | relative cleavage efficiency (fusion protein PRN) | relative cleavage efficiency (fusion protein PRK) | relative cleavage efficiency (fusion protein PRQ) |
| --- | --- | --- | --- | --- | --- | --- | --- | --- | --- | --- | --- | --- | --- | --- | --- | --- | --- | --- | --- |
| B1 | less than 3% | less than 3% | less than 3% | < 3% | < 3% | < 3% | < 3% | less than 3% | < 3% | less than 3% | < 3% | < 3% | less than 3% | < 3% | 3.8% | less than 3% | < 3% | < 3% | less than 3% |
| B2 | less than 3.0% | less than 3.0% | less than 3.0% | less than 3.0% | less than 3.0% | less than 3.0% | less than 3.0% | less than 3.0% | less than 3.0% | less than 3.0% | less than 3.0% | less than 3.0% | less than 3.0% | less than 3.0% | less than 3.0% | less than 3.0% | less than 3.0% | less than 3.0% | less than 3.0% |
| B3 | less than 3.0% | less than 3.0% | less than 3.0% | less than 3.0% | less than 3.0% | less than 3.0% | less than 3.0% | less than 3.0% | less than 3.0% | less than 3.0% | less than 3.0% | less than 3.0% | less than 3.0% | less than 3.0% | less than 3.0% | less than 3.0% | less than 3.0% | less than 3.0% | less than 3.0% |
